Data taken from patent US20170145069A1 (Novo Nordisk, published 2017).
*1 amine or outer side, *2 acyl side, *3 side chain or, on linkers, in order; H or OH if unused. Where no end group is shown, it is not given here. Side-chain parts run from the residue outwards. The star is where a group is joined. Decanoyl(10-(4-HOOC-PhO)) = O=C(O)c1ccc(OCCCCCCCCCC(=O)*)cc1; γGlu = O=C(O)[C@H](CCC(=O)[*:2])N[*:1]; AEEA = NCCOCCOCC(=O)O

Legend:
human GLP-1 receptor [1] = target: T1, human GLP-1 receptor (human, UniProt P43220 24-463); experiment: SPA, displacement of 125I-GLP-1(7-36)NH2, BHK membranes, 0.001% HSA
T1 construct: whole, on cells; also called the receptor; hGLP-1
Experimental: Test compounds, membranes, SPA-particles and [¹²⁵I] ]-GLP-1(7-36)NH₂ were diluted in assay buffer. 50 ul (micro liter) buffer (“low albumin” experiment containing 0.001% HSA) was added to Optiplate, and 25 ul of test compounds were added. 5-10 μg membrane protein/sample was added (50 μl) corresponding to 0.1-0.2 mg protein/ml (to be preferably optimised for each membrane preparation). SPA-particles (Wheatgerm agglutinin SPA beads, Perkin Elmer, #RPNQ0001) were added in an amount of 0.5 mg/well (50 μl). The incubation was started with [¹²⁵I]-GLP-1]-(7-36)NH₂ (final concentration 0.06 nM corresponding to 49.880 DPM, 25 μl). The plates were sealed with PlateSealer and incubated for 120 minutes at 30° C. while shaking. The plates were centrifuged (1500 rpm, 10 min) and counted in Topcounter.
The IC₅₀ value was read from the curve as the concentration which displaces 50% of ¹²⁵I-GLP-1 from the receptor.

human GLP-1 receptor [2] = target: T1, human GLP-1 receptor; experiment: cell-based or functional assay
human GLP-1 receptor [3] = target: T1, human GLP-1 receptor; experiment: cell-based or functional assay; remark: listed apart in the source

| Binder | IC50 (human GLP-1 receptor [1]) [nM] | In vitro potency (CRE-luciferase) low albumin EC50 (human GLP-1 receptor [2]) [nM] | In vitro potency (AlphaScreen cAMP; membranes) EC50 (human GLP-1 receptor [3]) [nM] |
| --- | --- | --- | --- |
| HAEGTFTSDVSK([Gly-Ser-Ser-Gly-Ser-Ser-γGlu-Decanoyl(10-(4-HOOC-PhO))])YLEEQAAK([Gly-Ser-Ser-Gly-Ser-Ser-γGlu-Decanoyl(10-(4-HOOC-PhO))])EFIAWLVQGRG | 1.63 | 0.0053 | 0.095 |
| HAEGTFTSDVSSYLEGQAAK([AEEA-AEEA-γGlu-Decanoyl(10-(4-HOOC-PhO))])EFIAWLVRGRK([AEEA-AEEA-γGlu-Decanoyl(10-(4-HOOC-PhO))])E [Comparative compound of Example 4a: Compound of Example 46, Chem. 65, in WO 2011/080103] | 2.77 | 0.04 | 0.101 |
